{"source": "paper PMC10144703", "about": "“Molecular Mechanism of Sirtuin 1 Inhibition by Human Immunodeficiency Virus 1 Tat Protein” (Life, 2023)", "binders": {"B1": {"name": "ac-Tat-46–54 (peptide)", "peptide": "SYGRK(Ac)KRRQ", "notes": "HIV1 Tat, residues 46-54, acetylated at Lys50; also called Tat substrate peptide"}, "B2": {"name": "human mini-Sirt1 (aa 183-505-(GGGS)2-641-665) (enzyme)", "chain": "GPYTFVQQHLMIGTDPRTILKDLLPETIPPPELDDMTLWQIVINILSEPPKRKKRKDINTIEDAVKLLQECKKIIVLTGAGVSVSCGIPDFRSRDGIYARLAVDFPDLPDPQAMFDIEYFRKDPRPFFKFAKEIYPGQFQPSLCHKFIALSDKEGKLLRNYTQNIDTLEQVAGIQRIIQCHGSFATASCLICKYKVDCEAVRGDIFNQVVPRCPRCPADEPLAIMKPEIVFFGENLPEQFHRAMKYDKDEVDLLIVIGSSLKVRPVALIPSSIPHEVPQILINREPLPHLHFDVELLGDCDVIINELCHRLGGEYAKLCCNPVGGGSGGGSQYLFLPPNRYIFHGAEVYSDSEDDV", "notes": "artificial linker, printed as (GGGS)2; human Sirt1, residues 641-665 (ESA region); Modified pET-19b with TEV cleavage site; source: E. coli CodonPlus(DE3), purified (nickel NTA, protease digestion, second nickel NTA, SEC)"}, "B3": {"name": "Tat-Cys^−-(1–86), full-length HIV1 Tat (Zaire 2 isolate) with its 7 Cys residues replaced by Ser/Ala (natural protein)", "chain": "MDPVDPNIEPWNHPGSQPKTASNRAHAKKSAYHSQVAFITKGLGISYGRKKRRQRRRPSQGGQTHQDPIPKQPSSQPRGDPTGPKE"}}, "key": {"human Sirt3-(118-399)": {"target": "T1, human Sirt3-(118-399) (human, UniProt Q9NTG7 118-399)", "T1 construct": "human Sirt3, residues 118-399; The construct used for crystallization; also called hSirt3-(118-399); source: E. coli CodonPlus(DE3), pVFT3S, purified (nickel NTA, protease digestion, second nickel NTA, SEC)", "T1 sequence (looked up)": "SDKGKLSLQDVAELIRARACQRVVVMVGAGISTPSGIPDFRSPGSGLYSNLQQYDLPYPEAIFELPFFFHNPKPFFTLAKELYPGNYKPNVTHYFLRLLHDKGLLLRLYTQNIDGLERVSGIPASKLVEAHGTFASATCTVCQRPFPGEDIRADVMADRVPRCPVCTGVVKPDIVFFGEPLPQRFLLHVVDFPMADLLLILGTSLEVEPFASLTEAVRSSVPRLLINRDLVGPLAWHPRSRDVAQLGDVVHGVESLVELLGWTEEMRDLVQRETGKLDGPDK", "assay": "crystal structure; 10 mg/mL Sirt3-(118-399) incubated with 2 mM peptide for 60 min at 20 °C; sitting-drop vapor diffusion at 20 °C (MES pH 6.0/PEG 200/PEG 3000 for ac-Tat-46-54; CHES pH 9.0/PEG 8000 for Tat-37-59)", "details": "both partners purified"}, "[1]": {"target": "B3", "assay": "NMR titration; unlabeled mini-Sirt1 (stock 260 µM) added stepwise to 100 µM 15N-labeled Tat-Cys^−; 150 mM sodium chloride, 10 mM potassium phosphate pH 6.4; 2D-(1H,15N)-HSQC at 298 K", "details": "both partners purified"}, "human full-length Sirt1": {"target": "T2, human full-length Sirt1 (human, UniProt Q96EB6 1-747)", "T2 sequence (looked up)": "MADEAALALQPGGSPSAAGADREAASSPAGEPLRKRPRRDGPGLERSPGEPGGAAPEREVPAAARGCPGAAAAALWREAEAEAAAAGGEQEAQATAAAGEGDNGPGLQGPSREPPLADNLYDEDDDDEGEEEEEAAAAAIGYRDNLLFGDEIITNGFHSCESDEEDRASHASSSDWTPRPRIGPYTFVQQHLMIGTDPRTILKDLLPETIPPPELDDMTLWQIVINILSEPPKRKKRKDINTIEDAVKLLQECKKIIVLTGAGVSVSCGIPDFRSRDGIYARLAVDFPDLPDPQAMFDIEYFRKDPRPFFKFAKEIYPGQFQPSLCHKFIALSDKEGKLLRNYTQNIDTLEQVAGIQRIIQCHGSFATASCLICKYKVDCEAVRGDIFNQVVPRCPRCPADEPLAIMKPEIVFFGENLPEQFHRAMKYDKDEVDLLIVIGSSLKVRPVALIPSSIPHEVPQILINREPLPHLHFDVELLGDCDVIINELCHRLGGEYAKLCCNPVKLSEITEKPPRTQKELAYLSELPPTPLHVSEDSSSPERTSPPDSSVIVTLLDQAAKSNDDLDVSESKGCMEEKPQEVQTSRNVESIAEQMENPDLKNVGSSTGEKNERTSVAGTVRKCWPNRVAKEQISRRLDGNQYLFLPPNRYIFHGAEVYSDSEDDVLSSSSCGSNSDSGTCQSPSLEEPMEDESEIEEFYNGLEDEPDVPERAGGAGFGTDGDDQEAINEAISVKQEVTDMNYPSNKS", "assay": "cell-based or functional assay"}, "[2]": {"target": "Sirt3 (as used in the activity assays) (human)", "assay": "cell-based or functional assay"}, "Sirt2-(43-356)": {"target": "T3, Sirt2-(43-356) (human, UniProt Q8IXJ6 43-356)", "T3 sequence (looked up)": "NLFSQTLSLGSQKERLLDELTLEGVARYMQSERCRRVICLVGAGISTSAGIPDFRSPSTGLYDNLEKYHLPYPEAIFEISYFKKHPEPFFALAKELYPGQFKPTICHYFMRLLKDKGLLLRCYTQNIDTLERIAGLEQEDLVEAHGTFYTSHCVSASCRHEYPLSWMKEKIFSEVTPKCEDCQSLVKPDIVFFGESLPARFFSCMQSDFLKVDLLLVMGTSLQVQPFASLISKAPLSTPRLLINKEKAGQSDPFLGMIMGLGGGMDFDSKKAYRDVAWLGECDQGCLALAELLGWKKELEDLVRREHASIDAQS", "assay": "cell-based or functional assay"}, "human mini-Sirt1 (aa …)": {"target": "B2", "assay": "cell-based or functional assay"}}, "note": "Where no end group is shown, it is not given here.", "data": [{"binder": "B1", "values": [{"measurement": "binding result", "setting": "human Sirt3-(118-399)", "result": "binds"}]}, {"binder": "B2", "values": [{"measurement": "binding result", "setting": "[1]", "result": "binds"}]}, {"binder": "B3", "values": [{"measurement": "inhibition of fl-Sirt1 deacetylation of FdL substrate, FdL assay at substrate Km; IC50", "setting": "human full-length Sirt1", "result": 3.6, "unit": "µM"}, {"measurement": "inhibition of fl-Sirt1 deacetylation of a p53-derived peptide, coupled enzymatic assay, 100 µM substrate; IC50", "setting": "human full-length Sirt1", "result": "~20", "unit": "µM"}, {"measurement": "inhibition of Sirt3 in the FdL assay at substrate Km; IC50", "setting": "[2]", "result": 15.9, "unit": "µM"}, {"measurement": "inhibition of Sirt2 in the FdL assay at substrate Km; IC50", "setting": "Sirt2-(43-356)", "result": 11, "unit": "µM"}, {"measurement": "inhibition of mini-Sirt1 deacetylation of p53 substrate, coupled-enzyme assay at substrate Km; IC50", "setting": "human mini-Sirt1 (aa …)", "result": "30 to 40", "unit": "µM"}, {"measurement": "inhibition of mini-Sirt1 in the FdL assay at substrate Km; IC50", "setting": "human mini-Sirt1 (aa …)", "result": 2.3, "unit": "µM"}]}]}
